Test results published in patent US20030104423.
Positions count from the first letter of the chain named. Names may count otherwise.

B1: β′ mutant R297L (protein)
chain: MKDLLKFLKAQTKTEEFDAIKIALASPDMIRSWSFGEVKKPETINYRTFKPERDGLFCARIFGPVKDYECLCGKYKRLKHRGVICEKCGVEVTQTKVRRERMGHIELASPTAHIWFLKSLPSRIGLLLDMPLRDIERVLYFESYVVIEGGMTNLERQQILTEEQYLDALEEFGDEFDAKMGAEAIQALLKSMDLEQECEQLREELNETNSETKRKKLTKRIKLLEAFVQSGNKPEWMILTVLPVLPPDLRPLVPLDGGRFATSDLNDLYRRVINRNNRLKRLLDLAAPDIIVRNEKLMLQEAVDALLDNGRRGRAITGS
B2: β′ mutant E301K (protein)
chain: B1 chain with L297R, E301K
B3: β′ mutant E301P (protein)
chain: B1 chain with L297R, E301P
B4: β′ mutant N274P (protein)
chain: B1 chain with N274P, L297R
B5: β′ mutant N274D (protein)
chain: B1 chain with N274D, L297R
B6: β′ mutant V272D (protein)
chain: B1 chain with V272D, L297R
B7: β′ mutant R270L (protein)
chain: B1 chain with R270L, L297R
B8: β′ mutant L299D (protein)
chain: B1 chain with L297R, L299D

The proteins below were run against σ70, native, untagged (pLN12), P00579.
Chain of σ70, native, untagged (pLN12), P00579 (P00579 whole entry): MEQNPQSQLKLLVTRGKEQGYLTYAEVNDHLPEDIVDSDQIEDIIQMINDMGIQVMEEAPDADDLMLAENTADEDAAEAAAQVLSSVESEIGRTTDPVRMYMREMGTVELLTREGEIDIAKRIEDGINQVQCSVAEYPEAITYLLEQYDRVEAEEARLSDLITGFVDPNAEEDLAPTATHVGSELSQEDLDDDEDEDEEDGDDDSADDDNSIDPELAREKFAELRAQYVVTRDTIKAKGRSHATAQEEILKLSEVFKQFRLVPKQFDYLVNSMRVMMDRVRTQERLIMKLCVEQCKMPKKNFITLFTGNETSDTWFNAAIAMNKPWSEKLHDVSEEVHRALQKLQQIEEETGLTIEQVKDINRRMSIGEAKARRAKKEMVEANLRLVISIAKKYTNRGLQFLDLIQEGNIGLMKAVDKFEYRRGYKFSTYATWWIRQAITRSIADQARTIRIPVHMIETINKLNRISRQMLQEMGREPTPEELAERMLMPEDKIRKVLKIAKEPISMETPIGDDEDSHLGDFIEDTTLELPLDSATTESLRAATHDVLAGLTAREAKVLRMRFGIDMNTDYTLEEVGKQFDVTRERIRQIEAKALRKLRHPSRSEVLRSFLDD

Protein | Growth at 42° C. with plasmid β′ as sole source of β′ (strain RL602)
B1 | -
B2 | +
B3 | -
B4 | -
B5 | +
B6 | -
B7 | +
B8 | -
